Reference: the supplement of paper PMC10126150
± gives the standard deviation of the averaged measurements.

System: ATP
Experiment: switch fluorescence ratio, 500 uM ATP over buffer (Cy3 cluster intensity, sum of 5 cycles each) (fold (ratio)); higher = stronger signal-on switching upon ATP binding; sequences stand for … in TCGTCGGCAGCGTCAGATGTGTATAAGAGACAGTTTTTTTTTTTTTTTTTTTTTTTTT…TC
Settings: aptamer strand: ATP DNA aptamer (quencher-CACCTGGGGGAGTATTGCGGAGGAAGG + anchor), 100 nM annealed; ATP concentration: 500 uM
In short: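 After annealing to 100 nM quencher-labelled ATP aptamer, Cy3-labelled switching-strand clusters on a modified Illumina MiSeq flow-cell were imaged in selection buffer. A second image followed after 15 min with 500 uM ATP at 22 °C, and five such buffer/ATP cycles were done, each separated by NaOH stripping and re-annealing. The fluorescence ratio, averaged per switch-domain sequence, is summed target-cycle over summed buffer-cycle Cy3 intensity per cluster, with clusters outside 100-1000 RFU excluded.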
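Further: ATP exposure 15 min at 22 °C before imaging.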

| Sequence | switch fluorescence ratio |
| --- | --- |
| GAGGGGCTTT | 0.982 ± 0.018 |
| CTTTGTAGCC | 1.05 ± 0.012 |
| TATTGGCTAA | 0.987 ± 0.034 |
| ACAAGGGGCG | 1.05 ± 0.079 |
| TATAAAACCC | 1.1 ± 0.045 |
| TCACGTTGGG | 0.9989 ± 0.0094 |
| TATTTGGGGG | 1.01 ± 0.029 |
| CTTTAAGGGC | 0.986 ± 0.022 |
| TCGTGTAGCT | 1 ± 0.03 |
| GCTATATGGC | 1.01 ± 0.024 |
| TGATGGGAGC | 0.982 ± 0.014 |
| GTTGATCCGA | 0.971 ± 0.013 |
| GATTGCAGTG | 0.9786 ± 0.002 |
| TAATCGTC | 0.968 ± 0.023 |
| GGCATCTAAG | 0.997 ± 0.019 |
| AGGTCGGGCG | 0.982 ± 0.026 |
| GATTAATTAC | 1.06 ± 0.018 |
| AGTGATTGAA | 0.987 ± 0.033 |
| TGCGATATTA | 1.02 ± 0.031 |
| CGGACTAGTT | 0.994 ± 0.022 |
| TGGGTGGTTG | 1.02 ± 0.035 |
| TCAGTAACGT | 1.02 ± 0.013 |
| TAGGCTTAGC | 0.9671 ± 0.0069 |
| GGACCGGCTA | 0.998 ± 0.02 |
| AACCTTCGTG | 1.62 ± 0.047 |
| AACGTGGGTA | 1.01 ± 0.026 |

| Sequence | switch fluorescence ratio |
| --- | --- |
| GGTTATCTTG | 1.01 ± 0.019 |
| AGTGTCGTGG | 1 ± 0.046 |
| TGCCATGTTT | 0.966 ± 0.014 |
| TTGGGTAATG | 1.01 ± 0.027 |
| AGCTGGGGTT | 0.9962 ± 0.0062 |
| TAAGCGCCAT | 1.029 ± 0.0049 |
| GGGGTTTGGA | 0.987 ± 0.024 |
| CGTATAGGGA | 1.015 ± 0.01 |
| AAAAAGTGGG | 0.992 ± 0.039 |
| TGAGTGATTG | 1.04 ± 0.052 |
| GGGATTTGAT | 0.98 ± 0.028 |
| GCCGAGTTTC | 1.02 ± 0.014 |
| TAATCCGGTC | 1.04 ± 0.094 |
| AGGGGTTATC | 1.02 ± 0.026 |
| GGTAACGTAG | 0.991 ± 0.022 |
| TTGGCGAGGG | 1.008 ± 0.0081 |
| AGTTATGGGG | 1 ± 0.032 |
| ATTCATAGGT | 0.992 ± 0.014 |
| TAGTGCGTCG | 0.942 ± 0.063 |
| TGGTTGGGAG | 1.01 ± 0.035 |
| AATCCTGGAG | 1.02 ± 0.011 |
| TGAAAGATTT | 1 ± 0.03 |
| GATATCAGGG | 0.978 ± 0.037 |
| GATATAGTGT | 0.991 ± 0.02 |
| GCGTCTGGGC | 0.992 ± 0.015 |
| ATCAGGGTGC | 1.06 ± 0.051 |

| Sequence | switch fluorescence ratio |
| --- | --- |
| CTTCTATAAC | 1.07 ± 0.02 |
| TTGGTAGAAA | 0.982 ± 0.024 |
| GATGTTTTGG | 0.986 ± 0.033 |
| TTTAATTTAG | 1.02 ± 0.024 |
| GGCCGGTTGC | 1.03 ± 0.071 |
| CACAAAAGCG | 1.01 ± 0.042 |
| AAAGCCGAAT | 0.99 ± 0.023 |
| CCGTAATCAG | 1.98 ± 0.14 |
| CTTATATATG | 0.987 ± 0.017 |
| TGGGTAATAT | 1.032 ± 0.0077 |
| CGTATGCAAG | 0.967 ± 0.041 |
| GGATAACGTA | 1.01 ± 0.049 |
| ACGTGTGGGC | 1.02 ± 0.017 |
| ATGAAGGGGA | 1 ± 0.049 |
| CTAGTTTGAG | 1.01 ± 0.01 |
| TATGATCTAG | 0.995 ± 0.014 |
| TGGGGTTGGG | 1 ± 0.044 |
| TTTATGGTCC | 1.02 ± 0.029 |
| TGAAGTTTGC | 0.999 ± 0.01 |
| CCATTCTTGT | 1.04 ± 0.022 |
| GGTGGGGTAA | 0.9927 ± 0.0083 |
| AGGCGTGGGA | 1.001 ± 0.0083 |
| TTCTATTTAA | 1.02 ± 0.029 |
| GGGGCGTCGT | 1.02 ± 0.029 |
